Data reported in article PMC12746075, “Twinfilin modulates tissue contractility through uncapping of capping protein in C. elegans” (Development (Cambridge, England), 2025).

Biological target: T1, biotinylated SNAP-tagged C. elegans heterodimeric capping protein (CAP-1 and CAP-2) (C. elegans, UniProt P34685 1-282; P34686 1-270, biotin (benzylguanine-biotin on the SNAP tag; subunit that carries the tag not stated) | biotin (benzylguanine-biotin on the SNAP tag; subunit that carries the tag not stated))
T1 construct: CAP-1, capping protein subunit of C. elegans; CAP-2, capping protein subunit of C. elegans; only one SNAP tag is meant for the heterodimer; also called CP; SNAP-CP; source: E. coli BL21 DE3, purified (HisTrap, size-exclusion chromatography Superose 6), labeled with benzylguanine-biotin; not shown: His tag (from the HisTrap chromatography)
T1 sequence (looked up) 1: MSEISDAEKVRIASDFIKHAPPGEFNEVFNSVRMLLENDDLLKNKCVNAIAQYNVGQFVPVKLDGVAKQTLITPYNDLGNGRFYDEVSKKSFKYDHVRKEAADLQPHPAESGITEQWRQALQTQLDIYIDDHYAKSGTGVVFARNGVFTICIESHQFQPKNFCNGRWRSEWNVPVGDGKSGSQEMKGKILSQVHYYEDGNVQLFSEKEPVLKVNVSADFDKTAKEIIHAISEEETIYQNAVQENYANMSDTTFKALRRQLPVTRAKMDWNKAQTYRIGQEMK
T1 sequence (looked up) 2: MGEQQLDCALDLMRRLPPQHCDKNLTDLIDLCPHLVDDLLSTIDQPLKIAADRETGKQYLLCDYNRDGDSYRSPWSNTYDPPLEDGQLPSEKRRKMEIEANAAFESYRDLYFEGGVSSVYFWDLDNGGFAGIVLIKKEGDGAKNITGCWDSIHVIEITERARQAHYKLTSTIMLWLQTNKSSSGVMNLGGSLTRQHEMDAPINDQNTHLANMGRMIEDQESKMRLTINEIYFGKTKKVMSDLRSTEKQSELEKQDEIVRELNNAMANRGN
Assay: microfluidics-assisted TIRF microscopy (filament capture and uncapping); biotinylated SNAP-CP anchored to the coverslip surface, preformed Alexa-488-labeled ADP-actin filaments captured; filament detachment monitored in TIRF buffer (10 mM imidazole pH 7.4, 50 mM KCl, 1 mM MgCl2, 1 mM EGTA, 0.2 mM ATP, 10 mM DTT) with and without TWF-2; single-exponential fit
Settings: both partners purified

fold acceleration of uncapping of CP from barbed ends (against buffer): > 90 fold
B1: C. elegans TWF-2 (6×His-tagged), recombinant (natural protein, UniProt Q20173 1-333, looked up)
chain: MACQTGIRANAALRNALNLGKQAKLRLIKIVVNNEEMTPNYEFAGTANWRDDWRACLPDCVDAYEPCFILFRLNTITEWVLITFVDDRAPVREKMLLAATCATFKSEFGQCYIEHEKHVTDLKDLTLNAFEAWLKAKTELGPMSEVERELHNAQQERAAIAHAGPQHMKGVAFPVDRNAEEALRQLASQKLSFVQLSVDTLNEAIKLEGTLESLEPSQLASKVPRDKPRYTFYNFDHTWEGVPQQCTLFIYSLPSSGSSIKERMLYSSCKGPFLSAAQNQYGVVITNKMEVDARDDLSEKALLEVIHPLPVEAPKQFSRPAPPRAGPRRITKV
notes: TWF-2, the sole twinfilin of C. elegans, recombinant; also called twinfilin; source: E. coli BL21 (pRare), purified (Ni-NTA, size-exclusion chromatography Superdex 75 Increase)
